The values that follow come from article PMC10547764, “KaScape: a sequencing-based method for global characterization of protein‒DNA binding affinity”.

In data set [1] the target is T1, AtWRKY1N (N-terminal WRKY DNA-binding domain) (UniProt Q9SI37 105-169). The experiment in a line: EMSA; protein:DNA 1:1 and 2:1; KaScape: 2e-11 mol protein and 1e-10 mol dsDNA in 2 mL, 30 min, Ni beads 1 h at 4 C, washes in buffer C (25 mM HEPES pH 7.0, 100 mM NaCl); EMSA buffer not given. The note with it: protein: recombinant; tags: C-terminal His-tag (pET21b).
The target of data set [2] is T1, AtWRKY1N (N-terminal WRKY DNA-binding …). The data set can be described thus: KaScape pull-down + NGS; random n=4 pool; second strongest; KaScape: 2e-11 mol protein and 1e-10 mol dsDNA in 2 mL, 30 min, Ni beads 1 h at 4 C, washes in buffer C (25 mM HEPES pH 7.0, 100 mM NaCl); EMSA buffer not given. The note with it: protein: recombinant; tags: C-terminal His-tag (pET21b). (In general: In EMSA bound probe runs differently from free probe, usually more slowly.)

T1 sequence (Q9SI37 105-169): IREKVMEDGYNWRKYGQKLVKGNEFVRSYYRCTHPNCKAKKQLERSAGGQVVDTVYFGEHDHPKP

B1: type 2 (GACCT) (dsDNA)
DNA 1: GCGCTGACCTAGGAG
DNA 2: CTCCTAGGTCAGCGC
For the molecule B1, the binding result in data set [1] is given as “binds”.

B2: type 3 (GACCC) (dsDNA)
DNA 1: GCGCTGACCCAGGAG
DNA 2: CTCCTGGGTCAGCGC
For the molecule B2, the binding result in data set [1] was “binds”.

B3: type 5 (AGACC) (dsDNA)
DNA 1: GCGCTAGACCAGGAG
DNA 2: CTCCTGGTCTAGCGC
In the case of B3, in data set [1], the binding result is “binds”.

B4: type 6 (TGACC) (dsDNA)
DNA 1: GCGCTTGACCAGGAG
DNA 2: CTCCTGGTCAAGCGC
For B4, the binding result in data set [1] was “binds”.

B5: type 4 (GACCA) (dsDNA)
DNA 1: GCGCTGACCAAGGAG
DNA 2: CTCCTTGGTCAGCGC
Regarding B5, in data set [1], the binding result was “binds”.

B6: KaScape n=4 member GACT (dsDNA)
DNA 1: GCGCTGACTAGGAGTGGGATCCGGGGGGGG
DNA 2: CCCCCCCCGGATCCCACTCCTAGTCAGCGC
With B6, the binding result in data set [2] was “binds”.

B7: type 8 (GGACC) (dsDNA)
DNA 1: GCGCTGGACCAGGAG
DNA 2: CTCCTGGTCCAGCGC
As for B7, the binding result in data set [1] was “binds”.

B8: type 1 (GACCG) (dsDNA)
DNA 1: GCGCTGACCGAGGAG
DNA 2: CTCCTCGGTCAGCGC
As for B8, the binding result in data set [1] is recorded as “binds”.

B9: type 7 (CGACC) (dsDNA)
DNA 1: GCGCTCGACCAGGAG
DNA 2: CTCCTGGTCGAGCGC
In the case of B9, the binding result in data set [1] is “no binding”.
